This note sets out measurements from PMC10204484.

This assay has as its target anti-DENV antibody with the 3Cam2 variable region and the LALA Fc variant (human).

Regarding “mouse C1q (from UniProt P98086 23-245; P14106 26-253; Q02105 30-246) (complex)”, the C3b ELISA (complement activation) on plate-immobilised antibody incubated with AG129 mouse serum; absorbance ratio versus the well without antibody immobilization worked out at 1.5 fold.
